From paper PMC10927090, “Plasmodium falciparum contains functional SCF and CRL4 ubiquitin E3 ligases, and CRL4 is critical for cell division and membrane integrity” (PLOS Pathogens, 2024)

How the values were obtained:
[1] = biological target: T1, GST-tagged C-terminal of PfCullin-1 (601-829 aa) (P. falciparum, UniProt Q8IAU5 601-829); assay: far-Western, overlay or dot blot; dot blot protein overlay: different amounts of HisSkp, HisSUMO/Rbx or HisSUMO spotted on nitrocellulose, blocked (3% BSA in PBS-T), overlaid with 10 μg of GST or GST-tagged protein for 12 h at 4°C, detected with anti-GST antibodies; details: both partners purified
T1 construct: P. falciparum Cullin-1 (PfCullin-1, PF3D7_0811000), C-terminal coding region, residues 601-829, amplified from cDNA, in pGEX-6P-1; also called GST/Cul1C; GST/PfCul1C; source: E. coli BL21(DE3), purified (glutathione agarose, native conditions); not shown: GST, N-terminal, kept
T1 sequence (looked up): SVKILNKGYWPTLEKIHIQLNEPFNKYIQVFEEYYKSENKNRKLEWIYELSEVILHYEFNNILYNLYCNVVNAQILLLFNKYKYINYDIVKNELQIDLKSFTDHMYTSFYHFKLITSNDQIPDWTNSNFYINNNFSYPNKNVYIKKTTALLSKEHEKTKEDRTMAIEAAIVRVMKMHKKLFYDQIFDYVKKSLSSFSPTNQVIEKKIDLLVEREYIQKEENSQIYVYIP

[2] = biological target: T2, GST-tagged N-terminal of PfCullin-1 (1-300 aa) (P. falciparum, UniProt Q8IAU5 1-300); assay: as above; details: both partners purified
T2 construct: P. falciparum Cullin-1 (PfCullin-1, PF3D7_0811000), N-terminal coding region, residues 1-300, in pGEX-6P-1; also called GST/Cul1N; GST/PfCul1N; source: E. coli BL21(DE3), purified (glutathione agarose, native conditions); not shown: GST, N-terminal, kept
T2 sequence (looked up): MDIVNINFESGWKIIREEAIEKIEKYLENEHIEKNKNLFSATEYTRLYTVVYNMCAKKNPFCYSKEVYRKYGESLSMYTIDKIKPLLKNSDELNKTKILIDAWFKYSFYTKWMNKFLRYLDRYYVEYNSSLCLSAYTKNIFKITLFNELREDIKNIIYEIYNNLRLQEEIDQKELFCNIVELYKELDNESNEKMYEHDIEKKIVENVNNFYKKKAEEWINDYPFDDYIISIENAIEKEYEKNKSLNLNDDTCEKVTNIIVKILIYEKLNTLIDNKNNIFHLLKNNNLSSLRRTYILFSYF

B1: 6×His/SUMO-tagged PfRbx1 (natural protein, P. falciparum, UniProt O77367 1-107, looked up)
chain: MADNITNDKRDIFKIHKWSAVAAWSWDISVDNCAICRNHIMDLCIECQAKTTDHENDKDKKIDKEGCTVAWGVCNHAFHLHCISRWIKARQVCPLDNTTWEFQKATD
notes: P. falciparum Rbx1 (PfRbx1, PF3D7_0319100), complete coding region, subcloned into pSMO; also called HisSUMO/Rbx; HisSUMO/PfRbx1; source: E. coli Rosetta-gami 2(DE3) pLysS, purified (Ni-NTA, native conditions); not shown: His6, N-terminal, kept; SUMO, N-terminal, kept
**Q.** Does B1 bind [1]?
**A.** binds

B2: 6×His-tagged PfSkp1 (natural protein, P. falciparum, UniProt Q8ID38 1-162, looked up)
chain: MKNDKIKLVSFEGDEFIVDKNTASMSTVIMNILEVMTAEEDTIPLPNIKTPILKKIIEYMEYHINNPADEIPKPLITSNLQDVVSSWDFDFVNTDKETLYELIEASNYLDIKPLLDLTCGKIASMMKDKTTEEIRAEFDIVNDFTREEEKQIREENRWCGDI
notes: P. falciparum Skp1 (PfSkp1, PF3D7_1367000), complete coding region amplified from genomic DNA, in pET28a; also called HisSkp; HisPfSkp1; source: E. coli Rosetta-gami 2(DE3) pLysS, purified (Ni-NTA, native conditions); not shown: His6, N-terminal, kept
**Q.** Does B2 bind [2]?
**A.** binds
